{
  "source": "paper PMC7324553",
  "about": "“Activity-Based Protein Profiling Reveals That Cephalosporins Selectively Active on Non-replicating Mycobacterium tuberculosis Bind Multiple Protein Families and Spare Peptidoglycan Transpeptidases” (Frontiers in Microbiology, 2020)",
  "proteins": {"B1": {"name": "Rv1738 (uncharacterized protein Rv1738; potential hibernation factor) (natural protein)", "chain": "MCGDQSDHVLQHWTVDISIDEHEGLTRAKARLRWREKELVGVGLARLNPADRNVPEIGDELSVARALSDLGKRMLKVSTHDIEAVTHQPARLLY"}},
  "molecular_target": "the molecule itself",
  "experiment": "SEC; Superdex 75 column, 20 mM Tris-Cl (pH 7.5), 150 mM NaCl; profile compared with protein size standards (44 and 17 kDa)",
  "data": [
    {"protein": "B1", "values": [
      {"measurement": "stoichiometry N", "value": 2}
    ]}
  ]
}
